Bridge positions count the residues as written; N and C are the ends. Square brackets hold non-standard residues; d marks the D form. Primed or numbered codes have the meaning given here. Ends that are not written are not given here. * marks the point of attachment. FITC = O=C1OC2(c3ccc(O)cc3Oc3cc(O)ccc32)c2ccc(NC(=S)*)cc21; PEG2′ = not defined here; Peg = not defined here; AEEA = NCCOCCOCC(=O)O
B1: FITC-labelled peptide 7 (Tat-PEG2-4E) (peptide)
peptide: GRKKRRQRRRPQ[PEG2′]SVEDHFAKALGDTWLQIKAA
modifications: not fully specified (some residues); also: FITC label, place not given here
notes: also called 7 (FITC-Peg); source: synthetic peptide
B2: FITC-labelled peptide 4E (peptide)
peptide: {FITC-Peg}-SVEDHFAKALGDTWLQIKAA
modifications: lactam 3-18; reading uncertain
notes: macrocyclic VGL4 two-helix motif 4E; numbers count on: mouse VGL4 as in PDB 4LN0; Rink amide resin: C-terminal amide surmised; also called 4E (FITC-Peg); source: synthetic peptide
B3: FITC-labelled VGL4(203-256) (peptide)
peptide: DPVVEEHFRRSLGKNYKEPEPAPNSVSITGSVDDHFAKALGDTWLQIKAAKDSA
modifications: also: FITC label, place not given here
notes: numbers count on: mouse VGL4 as in PDB 4LN0; also called FITC-VGL4
B4: peptide 21 (alanine scan of 4E), acetylated (peptide)
peptide: Ac-SVEDHFAKALGATWLQIKAA
modifications: lactam 3-18
notes: macrocyclic VGL4 two-helix motif 4E with one alanine; numbers count on: mouse VGL4 as in PDB 4LN0; Synthesised on Rink amide resin: C-terminal amide surmised; source: synthetic peptide
B5: peptide 20 (alanine scan of 4E), acetylated (peptide)
peptide: Ac-SVEDHFAKAAGDTWLQIKAA
modifications: lactam 3-18
notes: as for B4
B6: peptide 14 (alanine scan of 4E), acetylated (peptide)
peptide: Ac-AVEDHFAKALGDTWLQIKAA
modifications: lactam 3-18
notes: as for B4
B7: peptide 25 (alanine scan of 4E), acetylated (peptide)
peptide: Ac-SVEDHFAKALGDTWLAIKAA
modifications: lactam 3-18
notes: as for B4
B8: peptide 17 (alanine scan of 4E), acetylated (peptide)
peptide: Ac-SVEDAFAKALGDTWLQIKAA
modifications: lactam 3-18
notes: as for B4
B9: peptide 15 (alanine scan of 4E), acetylated (peptide)
peptide: Ac-SAEDHFAKALGDTWLQIKAA
modifications: lactam 3-18
notes: as for B4
B10: peptide 18 (alanine scan of 4E), acetylated (peptide)
peptide: Ac-SVEDHAAKALGDTWLQIKAA
modifications: lactam 3-18
notes: as for B4
B11: peptide 24 (alanine scan of 4E), acetylated (peptide)
peptide: Ac-SVEDHFAKALGDTWAQIKAA
modifications: lactam 3-18
notes: as for B4
B12: peptide 26 (alanine scan of 4E), acetylated (peptide)
peptide: Ac-SVEDHFAKALGDTWLQAKAA
modifications: lactam 3-18
notes: as for B4
B13: peptide 19 (alanine scan of 4E), acetylated (peptide)
peptide: Ac-SVEDHFAAALGDTWLQIKAA
modifications: lactam 3-18
notes: as for B4
B14: peptide 16 (alanine scan of 4E), acetylated (peptide)
peptide: Ac-SVEAHFAKALGDTWLQIKAA
modifications: lactam 3-18
notes: as for B4
B15: peptide 4, acetylated (two-helix motif of VGL4) (peptide)
peptide: Ac-SVDDHFAKALGDTWLQIKAA
notes: VGL4 two-helix motif (helices alpha2/alpha3); Synthesised on Rink amide resin: C-terminal amide surmised; source: synthetic peptide
B16: VGL4(203-256), acetylated (peptide 1) (peptide)
peptide: Ac-DPVVEEHFRRSLGKNYKEPEPAPNSVSITGSVDDHFAKALGDTWLQIKAAKDSA
notes: numbers count on: mouse VGL4 as in PDB 4LN0; Synthesised on Rink amide resin: C-terminal amide surmised (masses fit); also called hVGL4(203-256); source: synthetic peptide
B17: peptide 4E(open), acetylated (peptide)
peptide: Ac-SVEDHFAKALGDTWLQIKAA
notes: VGL4 two-helix motif with E at 235, not cyclised; numbers count on: mouse VGL4 as in PDB 4LN0; Synthesised on Rink amide resin: C-terminal amide surmised; also called linear version of 4E; source: synthetic peptide
B18: peptide 23 (alanine scan of 4E), acetylated (peptide)
peptide: Ac-SVEDHFAKALGDTALQIKAA
modifications: lactam 3-18
notes: as for B4
B19: peptide 22 (alanine scan of 4E), acetylated (peptide)
peptide: Ac-SVEDHFAKALGDAWLQIKAA
modifications: lactam 3-18
notes: as for B4
B20: peptide 7, acetylated (Tat-PEG2-4E) (peptide)
peptide: Ac-GRKKRRQRRRPQ[AEEA]SVEDHFAKALGDTWLQIKAA-NH2
modifications: lactam 16-31; not fully specified (some residues)
notes: cell-penetrating Tat peptide; macrocyclic VGL4 two-helix motif 4E; numbers count on: mouse VGL4 as in PDB 4LN0; The two parts are joined by a PEG2 unit that is no amino acid; Rink amide resin: C-terminal amide surmised; source: synthetic peptide
B21: YAP(50-100) (peptide, UniProt P46937 50-100, looked up)
peptide: AGHQIVHVRGDSETDLEALFNAVMNPKTANVPQTVPMRLRKLPDSFFKPPE
notes: yes-associated protein YAP, residues 50-100
B22: VGL4(203–256), full-length VGL4-derived TEAD binding sequence (peptide 1) (peptide, UniProt Q80V24 203-256, looked up)
peptide: B3 peptide
notes: mouse and human VGL4 are said to be identical in this stretch; Made on Rink amide resin, so probably a C-terminal amide; source: synthetic peptide (Fmoc solid-phase synthesis, RP-HPLC purified)

target: T1, GST-hTEAD1(209-426) (human, UniProt P28347 209-426); test: fluorescence polarisation; direct: FITC-labelled peptide (10 nM) titrated with hTEAD1 or mTEAD4; 10 mM HEPES, 150 mM NaCl, 0.1% Tween-20, pH 7.4; read after 1 h; conditions: both partners purified
T1 construct: A 3C protease site stands between tags and protein; also called human TEAD1; source: E. coli BL21 DE3 RIL, purified (His Trap, SEC); not shown: GST, N-terminal, kept
T1 sequence (P28347 209-426): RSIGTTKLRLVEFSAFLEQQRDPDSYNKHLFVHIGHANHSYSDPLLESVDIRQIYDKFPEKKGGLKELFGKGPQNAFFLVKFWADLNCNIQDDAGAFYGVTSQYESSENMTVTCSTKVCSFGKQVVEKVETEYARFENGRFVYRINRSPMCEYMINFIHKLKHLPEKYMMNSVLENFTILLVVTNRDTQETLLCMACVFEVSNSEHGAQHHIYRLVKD

Binder | Kd
B1 | 0.147 ± 0.07 µM
B2 | 0.168 ± 0.037 µM

target: T2, mouse TEAD4(210-427) (mouse, UniProt Q62296 210-427); test: as above; conditions: both partners purified
T2 construct: mouse TEAD4, residues 210-427; The tag was cleaved with 3C protease only for the crystallisation; nothing is said for SPR and FP; also called mTEAD4; source: E. coli BL21 DE3 RIL, purified (His Trap, SEC)
T2 sequence (Q62296 210-427): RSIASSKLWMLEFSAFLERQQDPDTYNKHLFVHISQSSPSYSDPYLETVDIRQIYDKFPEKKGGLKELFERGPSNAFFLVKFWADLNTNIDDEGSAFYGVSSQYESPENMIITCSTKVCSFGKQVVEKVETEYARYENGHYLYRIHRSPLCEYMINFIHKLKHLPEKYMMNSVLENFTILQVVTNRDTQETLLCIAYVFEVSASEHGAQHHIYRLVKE

Binder | Kd
B1 | 0.051 ± 0.005 µM
B2 | 0.032 ± 0.005 µM

target: T1, GST-hTEAD1(209-426); test: as above; conditions: both partners purified; remark: another data set of the same source

Binder | Kd
B3 | 0.017 ± 0.0025 µM

target: T2, mouse TEAD4(210-427); test: as above; conditions: both partners purified; remark: another data set of the same source

Binder | Kd
B3 | 0.0092 ± 0.0006 µM

target: T2, mouse TEAD4(210-427); test: fluorescence polarisation; competition: acetylated peptide titrated (50 µM-6 pM) against mTEAD4 (400 nM) with a FITC-labelled tracer peptide (10 nM; tracer not named); read after 1 h; conditions: both partners purified

Binder | IC50
B4 | > 100 µM
B5 | > 100 µM
B6 | 6.1 ± 4.3 µM
B7 | 0.06 ± 0.01 µM
B8 | > 100 µM
B9 | 2.1 ± 0.56 µM
B10 | > 50 µM
B11 | 0.1 ± 0.01 µM
B12 | 7.4 ± 6.1 µM
B13 | 0.28 ± 0.09 µM
B14 | 3 ± 0.76 µM

target: T1, GST-hTEAD1(209-426); test: SPR; GST-hTEAD1 or mTEAD4 amine-coupled to a CM5 chip (10 mM MES pH 6.4), peptides as analytes; 10 mM HEPES, 150 mM NaCl, 0.05% Tween-20, pH 7.4, 20 °C, 30 µL/min; steady-state fit, 1:1 model; conditions: both partners purified

Binder | Kd
B15 | 0.83 ± 0.78 µM

target: T2, mouse TEAD4(210-427); test: as above; conditions: both partners purified

Binder | Kd
B15 | 1.5 ± 1 µM

target: T1, GST-hTEAD1(209-426); test: as above; conditions: both partners purified; remark: another data set of the same source

Binder | Kd
B16 | 4.3 µM

target: T2, mouse TEAD4(210-427); test: as above; conditions: both partners purified; remark: another data set of the same source

Binder | Kd
B16 | 3.1 µM

target: T1, GST-hTEAD1(209-426); test: as above; conditions: both partners purified; remark: another data set of the same source

Binder | Kd
B17 | 3.1 µM

target: T2, mouse TEAD4(210-427); test: as above; conditions: both partners purified; remark: another data set of the same source

Binder | Kd
B17 | 2.4 µM

target: T1, GST-hTEAD1(209-426); test: as above; conditions: both partners purified; remark: another data set of the same source

Binder | Kd
B4 | > 100 µM
B5 | > 100 µM
B6 | 1.5 ± 0.02 µM
B18 | 7.8 ± 0.15 µM
B7 | 0.75 ± 0.12 µM
B8 | > 100 µM
B9 | 1 ± 0.37 µM
B19 | 91 ± 14 µM
B10 | > 100 µM
B11 | 1.1 ± 0.06 µM
B12 | 2.7 ± 1.07 µM
B13 | 1.7 ± 0.01 µM
B14 | 0.74 ± 0.46 µM

target: T2, mouse TEAD4(210-427); test: as above; conditions: both partners purified; remark: another data set of the same source

Binder | Kd
B4 | > 100 µM
B5 | > 100 µM
B6 | 2.7 ± 0.25 µM
B7 | 1.3 ± 0.11 µM
B8 | > 100 µM
B9 | 1.5 ± 0.37 µM
B10 | > 100 µM
B11 | 2 ± 0.14 µM
B12 | 4.4 ± 1.35 µM
B13 | 2.8 ± 0.06 µM
B14 | 1.6 ± 0.69 µM

target: T1, GST-hTEAD1(209-426); test: as above; conditions: both partners purified; remark: another data set of the same source

Binder | Kd
B20 | 0.83 ± 0.78 µM

target: T2, mouse TEAD4(210-427); test: as above; conditions: both partners purified; remark: another data set of the same source

Binder | Kd
B20 | 1.5 ± 1 µM

target: T2, mouse TEAD4(210-427); test: as above; conditions: both partners purified; remark: another data set of the same source

Binder | Kd
B21 | 0.7 µM

target: T3, mouse TEAD4(210–427), as purified (SPR) (mouse, UniProt Q62296 210-427); test: SPR; GST-hTEAD1 and mTEAD4 covalently tethered (NHS/EDC) on CM5 chips, 2000–3000 RU; peptides as analytes, threefold dilutions, typically 30 µM top concentration; 10 mM HEPES, 150 mM NaCl, 0.05% Tween-20, pH 7.4, 0.3% DMSO, 20 °C; steady-state fit, 1:1 model; conditions: both partners purified
T3 construct: cDNA fused with a 6x His-tag and a 3C protease cleavage site in pOPIN S; No tag cleavage is told for the protein used in SPR; cleavage is told only for the crystallised complex; also called mTEAD4; source: E. coli BL21 DE3 RIL, purified (His Trap, SEC)
T3 sequence (Q62296 210-427): as above

Binder | Kd
B22 | 2 µM
